These results are taken from US20130244255A1 (published 2013).

Several values for one entry are separate records, joined by “and”; a condition that tells them apart may be missing. Equal values may be shown once.

For orientation: Kd means the equilibrium constant for the complex coming apart. Usually koff stands for the first-order rate constant of dissociation. One may read the kon as the second-order rate constant of association.

The target of assay [1] is T1, Recombinant human GPNMB extra-cellular domain (ECD) with a C-terminus V5-HIS tag (human, UniProt Q14956 23-492).
T1 construct: Expressed in HEK293; also called GPNMB-V5His; GPNMB-soluble
T1 sequence: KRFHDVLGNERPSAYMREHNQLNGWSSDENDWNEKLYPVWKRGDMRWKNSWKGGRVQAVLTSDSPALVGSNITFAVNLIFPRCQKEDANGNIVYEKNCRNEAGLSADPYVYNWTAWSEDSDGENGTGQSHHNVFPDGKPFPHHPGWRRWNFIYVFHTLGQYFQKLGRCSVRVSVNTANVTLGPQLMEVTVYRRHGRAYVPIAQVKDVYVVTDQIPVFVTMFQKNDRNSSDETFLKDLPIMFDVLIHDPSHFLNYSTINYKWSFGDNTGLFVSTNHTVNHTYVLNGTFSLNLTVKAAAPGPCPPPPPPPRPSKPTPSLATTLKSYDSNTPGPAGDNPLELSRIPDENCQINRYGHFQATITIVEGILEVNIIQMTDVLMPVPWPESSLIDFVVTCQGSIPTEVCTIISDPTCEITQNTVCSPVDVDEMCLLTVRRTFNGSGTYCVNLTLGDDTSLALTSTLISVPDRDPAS
In words: Biacore, mAb captured on protein A. (In general: SPR reads the build-up and loss of mass on a sensor chip optically.)
Protocol: Certain Hybridoma cell supernatants (29) were analyzed for binding to GPNMB by BiaCore® 2000 biosensor equipped with a research-grade CM5 sensor chip. A 1:25 dilution of cell supernatant was passed over a protein A surface for 5 min followed by washing the surface for 10 mins. […] GPNMB binding data for each mAb was normalized for the amount of mAb captured on each surface. Normalized, drift corrected responses were also measured. The sensorgrams were fit to a simple 1:1 kinetic model.

The target in assay [2] is T2, GPNMB (CG56972) as expressed by human cell lines (human, UniProt Q14956 23-492).
T2 construct: Endogenous or transfected full-length protein on cells (FACS, killing assays) or in cell lysates (immunoprecipitation, blot); also called native GPNMB protein
T2 sequence: T1 sequence
In words: FACS on UACC-62 cells, antibody 1 ug/mL.
Protocol: The specificity of anti-GPNMB antibodies to cell membrane-bound GPNMB protein expressed by melanoma cancer cell line, UACC-62 was analyzed by FACS analysis. […] Cells were washed twice with PBS (Ca and Mg free), incubated with Versene at 37° C. until cells detached, counted and aliquoted at 1 million cells per assay tube. Cells were then washed twice and resuspended in ice-cold FACS buffer (0.01 M HEPES, 0.15M NaCl, 0.1% NaN₃ and 4% FBS). Primary antibody at 1 μg/mL was added to the cells. Cells were incubated on ice for 30 min, washed 2-3 times and resuspended in 1 mL of ice-cold FACS buffer. R-PE-conjugated goat anti-human antibody (Jackson ImmunoResearch Laboratory) at 1:100 dilution was added and cells were incubated on ice for 30 min. After washing 3 times with 1 mL of ice-cold FACS buffer, cells were fixed with 0.5-1 mL of 1% formaldehyde in PBS and analyzed by flow cytometry.

For assay [3], the target named is T2, GPNMB (CG56972) as expressed by human …. The assay is described as follows: cell-based or functional assay.
Assay [4] concerns the target T1, Recombinant human GPNMB extra-cellular …. The assay is described as follows: ELISA on plates coated with recombinant GPNMB (His and V5 tagged), detection with anti-FLAG M2-HRP.
Protocol: Plates were then blocked and washed. […] Plates were incubated for 1 h and washed. HRP-conjugated anti-FLAG M2 mAb (Sigma, St. Louis, Mo.) was added into the wells for 1 h, washed and the reaction developed with the TMB substrate reagent as described by the manufacturer (Pharmingen, San Jose, Calif.).
The target in assay [5] is T3, CD3 on purified human T cells (human, UniProt P07766 23-207; P04234 22-171; P09693 23-182).
T3 construct: also called human CD3 molecules
T3 sequence (P07766 23-207 limits assumed, chain 1 of 3): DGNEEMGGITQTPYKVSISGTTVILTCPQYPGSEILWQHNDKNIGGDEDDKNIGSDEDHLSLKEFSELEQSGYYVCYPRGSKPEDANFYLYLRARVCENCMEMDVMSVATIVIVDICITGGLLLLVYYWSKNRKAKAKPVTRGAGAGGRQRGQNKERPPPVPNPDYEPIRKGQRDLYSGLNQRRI
T3 sequence (P04234 22-171 limits assumed, chain 2 of 3): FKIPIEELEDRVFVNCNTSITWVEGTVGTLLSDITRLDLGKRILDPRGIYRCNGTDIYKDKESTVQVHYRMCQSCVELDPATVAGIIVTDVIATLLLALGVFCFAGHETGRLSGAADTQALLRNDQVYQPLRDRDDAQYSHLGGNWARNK
T3 sequence (P09693 23-182 limits assumed, chain 3 of 3): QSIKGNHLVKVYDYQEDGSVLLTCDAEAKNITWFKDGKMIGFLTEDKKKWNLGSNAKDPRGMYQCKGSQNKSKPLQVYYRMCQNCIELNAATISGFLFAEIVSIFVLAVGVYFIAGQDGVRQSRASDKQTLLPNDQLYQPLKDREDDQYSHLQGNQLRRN
The assay is described as follows: flow cytometry on purified human T cells, mouse anti-FLAG mAb and PE-conjugated goat anti-mouse Ig F(ab')2. On the technique in general: Flow cytometry measures light scatter and fluorescence of single cells or particles in a stream.

Assay [6] addresses T2, GPNMB (CG56972) as expressed by human …. The assay is described as follows: cell-based or functional assay. This is another data set of the same source.
The target is the same in assay [7]. In words: cell-based or functional assay. The source holds these as a separate data set.
Assay [8] has the same target. The assay is described as follows: cell-based or functional assay. The source holds these as a separate data set.
For assay [9] the target is unchanged. In words: cell-based or functional assay. This is another data set of the same source.
For assay [10] the target is unchanged. In words: cell-based or functional assay. The source holds these as a separate data set.

B1: Mab1.7.1 (antibody, IgG2, V domains shown)
VH: QVQLQESGPGLVKPSQTLSLTCTVSGGSISSANYYWTWIRQHPGKGLEWIGYIYYSGSTYCNPSLKSRVIISVDTSKNQFSLKLSSVTAADTAVYYCARGYNWNYFDYWGQGTLVTVSS
VL: DIVMTQSPATLSVSPGERATLSCRASQSVSSNLAWYQERPGQAPRLLIYGASTRATGIPARFSGSGSGTEFTLTISSLQSEDFAVYYCQQYNKWPPWTFGQGTKVEIER
notes: Fully human hybridoma antibody (XenoMouse XMG2, IgG2 kappa)
Regarding B1, in assay [1], the Kd stood at 122 nM, the koff is 0.00144 s⁻¹ and the kon was 11800 M⁻¹ s⁻¹.

B2: Mab1.10.2 (antibody, IgG2, V domains shown)
VH: QVQLQESGPGLVKPSETLSLTCTVSGDSISNYYWSWIRQPPGKGLEWIGYFYYSGSTNYNPSLKSRVTISVDTSKNQFSLKLSSVTAADTAVYYCARDRGWADYWGQGTLVTVSS
VL: EIVLTQSPGTLSLSPGERATLSCRTSQSISSSYLAWYQQKPGQVPRLLIYGASSRATGIPDRFSGSGSGTDFTLTISRLEPEDFAVYYCQQYGSSITFGQGTRLEIKR
notes: as for B1
For the molecule B2, in [1], the equilibrium dissociation constant (Kd) amounted to 118 nM, the dissociation rate constant (koff) came out at 0.000466 s⁻¹ and the kon was 3960 M⁻¹ s⁻¹.

B3: Mab1.2.2 (antibody, IgG2, V domains shown)
VH: ITLKESGPTLVKPTQTLTLTCTFSGFSLSAGGVGVGWIRQPPGKALEWLALIYWNDDKRYSPSLRSRLTITKDTSKNQVVLTITNMDPVDTATYYCAHSHYDYDWGSYFDYWGQGTLVTVSS
VL: DIVMTQTPLSLPVTPGEPASISCRSSQSLLDSDDGNTYLDWYLQKPGQSPQLLIYTLSYRASGVPDRFSGSGSGTDFTLNISRVEAEDVGVYYCMQRIEFPITFGQGTRLEIKR
notes: Fully human hybridoma antibody (XenoMouse XMG2, IgG2 kappa); also called CR011.1.2.2
As to B3, in assay [1], the Kd came to 96 nM, the koff came out at 0.00089 s⁻¹ and the association rate constant (kon) came to 9260 M⁻¹ s⁻¹. Besides, the “Geo Mean Ratio (relative to pK16)” value in assay [2] came out at 1.24 ratio.

B4: Mab2.22.1 (antibody, IgG2, V domains shown)
VH: QVQLEQSGPGLVKPSQNLSLTCTVSGGSISSGGYFWSWIRQHPGKGLEWIGYIYYSGNTYYNPSLKSRVTISVDTSKNQFSLKLSSVTAADTAVYYCARDYYYDTSGFSYRYDWYYGMDVWGQGTTVTVSS
VL: DIQLTQSPSSLSASVGDRVTITCRASQGIRNDLGWYQQKPGKAPKRLIYAASSLQNGVPSRFSGSGSGTEFTLTISSLQPEDFATYYCLQHNTYPAFGQGTKVEIKR
notes: Fully human hybridoma antibody (XenoMouse XMG2, IgG2 kappa); also called CR011.2.22.1
On to B4, for which, in [3], the “killing of UACC-62 cells with saporin-conjugated secondary antibody (colony count)” value was greater than 70%. Besides, the “Geo Mean Ratio (relative to pK16)” value in assay [2] was 4.46 ratio.

B5: Mab2.10.2 (antibody, IgG2, V domains shown)
VH: QLVESGGGVVQPGRSLRLSCAASGFAFSSYGMHWVRQAPGKGLEWVAVISYDGNNKYYADSVKGRFTISRDNSKNTLYLQMNSLRAEDTAVYYCARDLVVRGIRGYYYYFGMDVWGQGTTVTVSS
VL: not shown
notes: Fully human hybridoma antibody (XenoMouse XMG2, IgG2 kappa); also called CR011.2.10.2
For B5, the “killing of UACC-62 cells with saporin-conjugated secondary antibody (colony count)” value in assay [3] was greater than 70%. Besides, the “Geo Mean Ratio (relative to pK16)” value in assay [2] was 2.6 ratio.

B6: CR011 single chain antibody (CR011 scFv), VL-L4-VH, Flag tag (scFv)
scFv: EIVMTQSPATLSVSPGERATLSCRASQSVDNNLVWYQQKPGQAPRLLIYGASTRATGIPARFSGSGSGTEFTLTISSLQSEDFAVYYCQQYNNWPPWTFGQGTKVEIKLSADDAKKDAAKKDDAKKDDAKKDLQVQLQESGPGLVKPSQTLSLTCTVSGGSISSFNYYWSWIRHHPGKGLEWIGYIYYSGSTYSNPSLKSRVTISVDTSKNQFSLTLSSVTAADTAVYYCARGYNWNYFDYWGQGTLVTVSSASDYKDDDDK
notes: also called CR011 scFv monomer; mono-specific anti-GPNMB scFv
For the molecule B6, the binding result is “binds” in [4] and “no binding (tested: 5 ug/sample/100 ul)” in assay [5].

B7: CR011-vcMMAE (antibody, human IgG2)
heavy: QVQLQESGPGLVKPSQTLSLTCTVSGGSISSFNYYWSWIRHHPGKGLEWIGYIYYSGSTYSNPSLKSRVTISVDTSKNQFSLTLSSVTAADTAVYYCARGYNWNYFDYWGQGTLVTVSSASTKGPSVFPLAPCSRSTSESTAALGCLVKDYFPEPVTVSWNSGALTSGVHTFPAVLQSSGLYSLSSVVTVPSSNFGTQTYTCNVDHKPSNTKVDKTVERKCCVECPPCPAPPVAGPSVFLFPPKPKDTLMISRTPEVTCVVVDVSHEDPEVQFNWYVDGVEVHNAKTKPREEQFNSTFRVVSVLTVVHQDWLNGKEYKCKVSNKGLPAPIEKTISKTKGQPREPQVYTLPPSREEMTKNQVSLTCLVKGFYPSDIAVEWESNGQPENNYKTTPPMLDSDGSFFLYSKLTVDKSRWQQGNVFSCSVMHEALHNHYTQKSLSLSPGK
VL: not shown
modifications: vcMMAE (maleimidocaproyl-valine-citrulline-monomethylauristatin E) on cysteine thiols of reduced disulfides, about 4 per antibody; positions not given
On to B7, for which, in assay [6], the “Clonogenic Assay with 1.15.1-AE IC50, G361” value was 1050 ng/mL and 6500 pM; the “Clonogenic Assay with 1.15.1-AE IC50, RPMI-7951” value is 972 ng/mL and 6000 pM; the “Clonogenic Assay with 1.15.1-AE IC50, SK-Mel 2” value is 111 ng/mL and 750 pM; the “Clonogenic Assay with 1.15.1-AE IC50, SK-Mel 5” value is 237 ng/mL and 1600 pM. For the same molecule, in assay [6], the “Clonogenic Assay with 1.15.1-AE IC50, UACC-62” value is 697 ng/mL and 4300 pM; the “Clonogenic Assay with 1.15.1-AE IC50, UACC-257” value is 825 ng/mL and 5500 pM; the “Clonogenic Assay with 1.15.1-AE IC50, WM-266-4” value was 345 ng/mL and 2300 pM. Besides, in assay [7], the “Clonogenic Assay with 1.15.1-AE IC50, SR” value is 296 ng/mL and 2000 pM; the “Clonogenic Assay with 1.15.1-AE IC50, THP-1” value is 207 ng/mL and 1400 pM; the “Clonogenic Assay with 1.15.1-AE IC50, U937” value was 340 ng/mL and 2400 pM. Moreover, in assay [8], the “CR011-AE IC50, clonogenic assay, SF-268 (weakly expressing)” value is greater than 1.5 µg/mL; the “CR011-AE IC50, clonogenic assay, SF-539” value worked out at 1.03 µg/mL; the “CR011-AE IC50, clonogenic assay, SK-MEL-2” value is 0.303 µg/mL; the “CR011-AE IC50, clonogenic assay, SNB-78” value worked out at 0.449 µg/mL. Moreover, in assay [8], the “CR011-AE IC50, clonogenic assay, U-118-MG” value was 1.25 µg/mL and the “CR011-AE IC50, clonogenic assay, XF-498” value is 0.216 µg/mL. Further, in assay [9], the “IC50 of colony formation (clonogenic assay, % of control, 96 h) on HEK293 cells transfected with GPNMB (circles); Vector + CR011-vcMMAE (diamonds) is printed as >1000” value is 0.3 µg/mL. Besides, in assay [10], the “IC50 of colony formation (clonogenic assay, % of control) on SK-Mel-2 cells transfected with control siRNA (circles)” value came out at 0.22 µg/mL and the “IC50 of colony formation (clonogenic assay, % of control) on mock-transfected SK-Mel-2 cells (diamonds)” value amounted to 0.33 µg/mL.
